From patent US5847088A, “Antibodies specific for platelet-activating factor acetylhydrolase” (ICOS Corporation, priority 1995, dated 1998)

Columns and labels:
PAF-induced foot edema = assay: Rat foot edema model, PAF-induced; format: in vivo
Procedure: Six to eight-week-old female Long Evans rats (Charles River, Wilmington, Mass.), weighing 180-200 grams, were used for all experiments. Prior to experimental manipulations, animals were anesthetized with a mixture of the anesthetics Ketaset (Fort Dodge Laboratories, Fort Dodge, Iowa), Rompun (Miles, Shawnee Mission, Kans.), and Ace Promazine (Aveco, Fort Dodge, Iowa) administered subcutaneously at approximately 2.5 mg Ketaset, 1.6 mg Rompun, 0.2 mg Ace Promazine per animal per dose. Edema was induced in the foot by administration of either PAF or zymosan as follows. PAF (Sigma #P-1402) was freshly prepared for each experiment from a 19.1 mM stock solution stored in chloroform/methanol (9:1) at -20° C. Required volumes were dried down under N2, diluted 1:1000 in a buffer containing 150 mM NaCl, 10 mM Tris pH 7.5, and 0.25% BSA, and sonicated for five minutes. Animals received 50 μl PAF (final dose of 0.96 nmoles) subcutaneously between the hind foot pads, and edema was assessed after 1 hour and again after 2 hours in some experiments. Zymosan A (Sigma #A-8800) was freshly prepared for each experiment as a suspension of 10 mg/ml in PBS. Animals received 50 μl of zymosan (final dose of 500 μg) subcutaneously between the hind foot pads and edema was assessed after 2 hours.
Edema was quantitated by measuring the foot volume immediately prior to administration of PAF or zymosan and at indicated time point post-challenge with PAF or zymosan. Edema is expressed as the increase in foot volume in milliliters. Volume displacement measurements were made on anesthetized animals using a plethysmometer (UGO Basile, model #7150) which measures the displaced water volume of the immersed foot. […] Repeated measurements of the same foot using this technique indicate the precision to be within 5%.
PAF-AH was injected locally between the foot pads, or systematically by IV injection in the tail vein. For local administration rats received 100 μl PAF-AH (4000-6000 U/ml) delivered subcutaneously between the right hind foot pads. Left feet served as controls by administration of 100 μl carrier (buffered salt solution). For systemic administration of PAF-AH, rats received the indicated units of PAF-AH in 300 μl of carrier administered IV in the tail vein. Controls received the appropriate volume of carrier IV in the tail vein.

[1] = tested on: PAF-induced necrotizing enterocolitis; assay: Rat model of PAF-induced necrotizing enterocolitis (NEC); format: in vivo
Procedure: The small intestines were removed after 2 hours from the ligament of Trietz to the cecum, thoroughly washed with cold saline and examined grossly. Samples were obtained from microscopic examination from the upper, middle and lower portions of the small intestine. The tissues were fixed in buffered formalin and the sample processed for microscopic examination by staining with hematoxylin and eosin. The experiment was repeated three times.
In order to determine if the protection against NEC in rats was dose dependent, animals were treated with increasing doses of PAF-AH 15 minutes prior to PAF administration. Initially, PAF-AH, ranging from 25.5 to 25,500 units were administered into the tail vein of rats. PAF (0.4 μg in 0.2 ml of BSA-saline) was subsequently injected into the abdominal aorta 15 minutes after the administration of PAF-AH. The small intestine was removed and examined for NEC development 2 hours after PAF administration. Plasma PAF-AH activity was determined prior to the exogenous administration of the enzyme, and 15 minutes and 21/4 hours after PAF-AH administration. The results are the mean of 2-5 animals in each group.
In order to determine the length of time exogenous PAF-AH afforded protection against development of NEC, rats were injected once with a fixed amount of the enzyme via the tail vein and subsequently challenged with PAF at various time points. PAF-AH (8,500 units in 0.3 ml) or vehicle alone was administered into the tail vein of rats, and PAF (0.36 μg in 0.2 ml of BSA-saline) was injected into the abdominal aorta at the various times after the enzyme administration. The small intestines were removed 2 hours after the PAF injection for gross and histological examinations in order to evaluate for NEC development. Plasma PAF-AH activities were determined at various times after enzyme administration and two hours after PAF administration. The mean value±standard error for enzyme activity was determined for each group.
In order to determine if administration of PAF-AH was capable of reversing development of NEC induced by PAF injection, 25,500 units of enzyme was administered via injection into the vena cava two minutes following PAF administration (0.4 μg).

PAF-induced pleurisy = PAF-induced pleurisy (Evans blue vascular leakage); format: in vivo, rat; conditions: 300 μl PAF-AH (1500 μmol/ml/hour) IV 15 minutes before 2.0 nmol PAF, 1 hour
Procedure: Fifteen minutes later the rats received an 100 μl injection of PAF (2.0 nmol) into the pleural space. One hour following PAF challenge, rats were sacrificed and the pleural fluid was collected by rinsing the cavity with 3 ml heparinized phosphate buffered saline. The degree of vascular leak was determined by the quantity of Evans blue dye in the pleural space which was quantitated by absorbance at 620 nm.

[2] = Pharmacokinetics of PAF-AH in rat circulation (double mAb capture ELISA); format: in vivo; conditions: 2000 U IV, mean ± SEM
Procedure: Four rats received 2000 U of PAF-AH by IV injection in a 300 μl volume. Plasma was collected at various time points and stored at 4° C. and plasma concentrations of PAF-AH were determined by ELISA using a double mAb capture assay. In brief, monoclonal antibody 90G11D (Example 13) was diluted in 50 mM carbonate buffer pH 9.6 at 100 ng/ml and immobilized on Immulon 4 ELISA plates overnight at 4° C. After extensive washing with PBS containing 0.05% Tween 20, the plates were blocked for 1 hour at room temperature with 0.5% fish skin gelatin (Sigma) diluted in PBS. Serum samples diluted in PBS with 15 mM CHAPS were added in duplicate to the washed ELISA plate and incubated for 1 hour at room temperature. After washing, a biotin conjugate of monoclonal antibody 90F2D (Example 13) was added to the wells at a concentration of 5 μg/ml diluted in PBS and incubated for 1 hour at room temperature. After washing, 50 μl of a 1:1000 dilution of ExtraAvidin (Sigma) was added to the wells and incubated for 1 hour at room temperature. After washing, wells were developed using OPD as a substrate and quantitated. Enzyme activity was then calculated from a standard curve. […]

B1: PAF-AH: Recombinant human plasma platelet-activating factor acetylhydrolase (beginning at Ile42 of SEQ ID NO:8) expressed in E. coli (protein, UniProt Q13093 22-441, looked up)
Platelet-activating factor …: FDWQYINPVAHMKSSAWVNKIQVLMAAASFGQTKIPRGNGPYSVGCTDLMFDHTNKGTFLRLYYPSQDNDRLDTLWIPNKEYFWGLSKFLGTHWLMGNILRLLFGSMTTPANWNSPLRPGEKYPLVVFSHGLGAFRTLYSAIGIDLASHGFIVAAVEHRDRSASATYYFKDQSAAEIGDKSWLYLRTLKQEEETHIRNEQVRQRAKECSQALSLILDIDHGKPVKNALDLKFDMEQLKDSIDREKIAVIGHSFGGATVIQTLSEDQRFRCGIALDAWMFPLGDEVYSRIPQPLFFINSEYFQYPANIIKMKKCYSPDKERKMITIRGSVHQNFADFTFATGKIIGHMLKLKGDIDSNVAIDLSNKASLAFLQKHLGLHKDFDQWDCLIEGDDENLIPGTNINTTNQHIMLQNSSGIEKYN
mean increase in volume (foot edema) (PAF-induced foot edema; 2000 U IV 15 minutes before PAF, 1 hour, ± SEM (FIG. 6)): 0.08 ± 0.02 mL | mean volume increase (foot edema) (PAF-induced foot edema; 2000 U IV 15 minutes prior to PAF, two hours after challenge, ± SEM): 0.10 mL | ID50 (PAF-induced foot edema; IV 15 minutes prior to PAF, edema after 1 hour): 40-80 U per rat | IV doses found to dramatically reduce PAF mediated inflammation (PAF-induced foot edema; IV dosing studies): 160-2000 U/rat | PAF-induced edema, PAF-AH versus PAF antagonists (PAF-induced foot edema; PAF-AH 2000 U IV, CV3988 or Alprazolam 2 mg IP (FIG. 10)): reduction in PAF-induced edema beyond that afforded by the established PAF antagonists | plasma concentration predicted to block PAF-elicited edema (PAF-induced foot edema; calculated from plasma volume of 180-200 gram rats): 25-40 U/ml | increase in foot volume (PAF-induced foot edema; local subcutaneous 100 μl PAF-AH (4000-6000 U/ml), immediate PAF challenge, 1 hour post-challenge, mean ± SEM): 0.08 mL | duration of protection from PAF induced edema (PAF-induced foot edema; single 2000 U IV dose): at least 24 hours | NEC development, PAF challenge within the first eight hours after injection ([1]; 8,500 units IV once): none of the rats developed NEC | animals developing NEC, PAF challenge at 24 and 48 hours after injection ([1]; 8,500 units IV once): 100% | protection against NEC ([1]; 25,500 units IV followed by PAF injection): completely protected | gross findings of bowel, PAF-AH in the absence of PAF ([1]; 25,500 units IV, no PAF): no effect on the gross findings | NEC development, enzyme given 15 minutes after PAF ([1]; 25,500 units into vena cava): all animals developed NEC | NEC development, enzyme given two minutes following PAF ([1]; 25,500 units into vena cava, PAF 0.4 μg): None of the animals developed NEC | gross findings of bowel ([1]; 25,500 units via tail vein 15 minutes prior to PAF into aorta): the bowel appeared to be normal | lowest protective amount of enzyme against NEC ([1]; IV 15 minutes prior to PAF 0.4 μg): 2040 units | NEC development at low doses ([1]; less than 2,000 units of the enzyme): developed NEC | reduction in inflammation (vascular leakage, Evans blue in pleural space) (PAF-induced pleurisy): > 80% | plasma enzyme level at one hour [2]: 374 U/ml
